Test results taken from the nanobody polyreactivity screen of Harvey et al. (2022).

assay: yeast display, Sf9 membrane polyspecificity reagent, FACS + sequencing; frameworks hold sequencing errors
How it was run: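 Nanobodies from a synthetic yeast display library (Saccharomyces cerevisiae BJ5465), induced 36–48 hours with galactose, were stained 1 hour at 4 °C with 10% biotinylated, detergent-solubilized Sf9 membrane reagent, enriched on streptavidin microbeads, then FACS-sorted. Anti-HA (expression) and streptavidin (reagent binding) fluorescence set low and high (top ~1%) gates. Polyreactivity labels come from the gate of origin. Genes were colony-PCR amplified, MiSeq 2 × 250 sequenced and filtered by CDR length.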

Row | Sequence | polyreactivity (PSR sort gate)
1 | QFQLGESGGGLVQAGGSLRLSCAASGSTFSGYTKGWYRQARGKEREFVAAISSRGGSTYYADSVKGRFTISRDNAKNTVYLQMYRLNPEDTAVYYCAAKVCARVDGRQFRMEYWGQGTQVTVSS | high polyreactivity
2 | QFQLVDSVGGLDQAGGSLRLSSDASGLTLIGNAMGWYRQAPVKERELVASITIGGTTYADSVKGRFTISRDNAKNTVYLQMNSLKPEDTEVYYCAADFSSFSIDTGYDYWGQGTQVTVSS | low polyreactivity
3 | QFQLVESAGGLFQAVGSHRLSCAASGRTFTQYAMGWYRQAPGKERELVAAISWRGGSTYYADSVKGRFTISRDNAKNTVYLQMNSLKPEDTAVYYCAKRYFRGYPLYDYWGQGTQVTVSS | high polyreactivity
4 | QFQLVESCGGLVQAGGTLRLSCAASGFIFDIYERGWYRQAPGKERELVAAITWNSGSTHYADSVKGRFTISRDNAKKTVYLQMNSLNPDDTAVYYCAAVEVTYAYYPYDYCGQGTQVTVSS | low polyreactivity
5 | QFQLVESGGCLVQAGGSLRLSCAASGFIFLQYAMGWYRQAPGKETELGAAITSGGGTNYEDSVKGRFTISRDNAKNTVYLPMNSLKPEDTAGYNCAARTWPWVLGATQDDYWGQGTQVTVSS | low polyreactivity
6 | QFQLVESGGCLVQAGGSLRLSCAASGRTFGWYAMGWYRQAPGKERELVAAISTRGTRTYYADSVKGRFTISRDNAKITDYLQMYSLKPEDTAVYYCNAKRRAVTTAHGIPEEDYWGQGTKVTVSS | high polyreactivity
7 | QFQLVESGGGFVQAGGSLRLSCAASGSIFLYNDMGWYRQAPGKDRELLPAITSDGSTNYADSVKGRFTISRDNAKNTVYLQMNSLKPEDTAVYYCAADALWFYLNWYYGGTAYGYWGQGTQVTVSS | low polyreactivity
8 | QFQLVESGGGLDQAGGSLRISCAASGSTFSYNAIGWYRQAPGKERELVAAITSRGGSTRYADSVKGRFTISRDNAKNTVYLQMNSLNPEDTAVYYCARPYSYYPYSTVNYWGQGTQVTVSS | high polyreactivity
9 | QFQLVESGGGLLQAGGSLRLSCAASGFTFSYNAKGWYRKAPGKERELVAAISSSGGSTYYADSVKGRFTISRDNAKNTVYLQMNILKPEDPSVYYCAVPYLTLYGRSYDYWGQGTQVTVSS | high polyreactivity
10 | QFQLVESGGGLLQAGGSLRLSCAASGLTFNQKAMGWYTQAPGKDRELVAAISRRGGSTYYADSVKGRFTFSRENAKNTVYLQLNSLKPEDTAVYYCNTRGKSGLWWYYYWGQGTQVTVSS | high polyreactivity
11 | QFQLVESGGGLVHAGGSLRLSCAATGSTLPGYAMGWYRQAPGKERELVAAITSRGGTTYYADSVKGRFTISCDNAKKTVYLQMNSLKPEDTAVYYCAAYTSYASDYWGQGTQVTVSS | high polyreactivity
12 | QFQLVESGGGLVKAGGSLRLSSAASGGTFGYYTMGWYRQAPGKERELVAAISSGGGTDYADSVKGRFTISRDNAKNTVYFQMTSLKPEDTALYYCATVSDYPWRYDYWVQGTQVTVSS | low polyreactivity
13 | QFQLVESGGGLVQAGASLRLSCAASGSIFDLNALGWYRQAPGKDRELVAAITRDSGITYYADSVKGRFKISRDNAKNTVYLQMNSLKPEDTAVYYCAADADSSSGDSWGQGTQVTVSS | low polyreactivity
14 | QFQLVESGGGLVQAGGILRLSCADSGSTFRWYAMGWYRKAPGKERELVASITYSGASTYYADSVKGRFTISRDNAKNTVYLQMISLKPEDTAVYYCNAVFWFSYVSEYDYWGQGTQVTVSS | high polyreactivity
15 | QFQLVESGGGLVQAGGRLRLSCAASGSIFYRNAMGWYRQAPGKERELVAAISASGGSTYYADSVKGRFTISRDNEKNTVYLQMIILKPEDTAVYYCDVEYRKSRSYAPMGYWGQGTQVTVSS | high polyreactivity
16 | QFQLVESGGGLVQAGGSLRISCAASGSTFVLNAMGWYRQAPGKDREWVAAISQSDYSTYYSDSVKGRFTISRDNAKNTVYLQMNSLKPEDTAVYYSAREYAHLSFLSTSSDYWGQGTQVTVSS | low polyreactivity
17 | QFQLVESGGGLVQAGGSLRLRCAATGSNFYVYALGWYRQAPGKETELVAAIRRTGSSTYYADSVKGRFTMSRDNAKNTDYLQMNSLKPEDTAVYYCAARYWRARAGSYDYWGQGTQVTVSS | high polyreactivity
18 | QFQLVESGGGLVQAGGSLRLSCAASGFIFGGNVMGWYRQAPGKERELVAAITSSATTYYADSVKGRFTISRDNAKNTVYLQMNSLKREDTAVYYCAADTWTIVDYGYWGQGTQVTVSS | low polyreactivity
19 | QFQLVESGGGLVQAGGSLRLSCAASGFIFGYNAMGWYRQAPGKERELVAPITYNGASTNYADSVKGRFTISRDNAKNTVYLQMNSLKPEDTAVYYCAADYGPYDPEDDWGQGTQVTVSS | low polyreactivity
20 | QFQLVESGGGLVQAGGSLRLSCAASGFIFKPYTMGWYRQAPGKERELVATITFSGGSTYYADSVKGRFTISLDNAQNTVYLQMNSLNPEDTAVYYCADPRYYRGYSIFDYLGQGTQVTVSS | low polyreactivity
21 | QFQLVESGGGLVQAGGSLRLSCAASGFIFSTYTMGWYRQAPGKERELVAAISSGGGTYYADSVKGRFTISRDNAKNTVYLQMNSLKPEDTAVYYCAALVYSSYPAGWYDYWGQGTQVTVSS | high polyreactivity
22 | QFQLVESGGGLVQAGGSLRLSCAASGFIFYKYAMGWYRQAPGKERELVAAISSIGGRTYYADSVKGRFTISRDNAKNTVYLQMNSLKPEDTAVYYCAARYRRTIPWFAPGNDHKYWGQGTQVTVSS | high polyreactivity

Row | Sequence | polyreactivity (PSR sort gate)
23 | QFQLVESGGGLVQAGGSLRLSCAASGFILWTYAMGWYRQAPGKERELVAAISTTGGSTYYADSVKGRFTISRDNAKNTVYCQMNSLKPEDTAVYYCAAQVGRGYEVYPVYKYGYWGQGTQVTVSS | high polyreactivity
24 | QFQLVESGGGLVQAGGSLRLSCAASGFTFDDYDMGWYRQAPGKERELVAAISWSGGSTYYADSVKGRFTISRDNSKNTVYLQMNSLKPEDTAVYYCAAERSYGGFDYWGQGTQVSVSS | low polyreactivity
25 | QFQLVESGGGLVQAGGSLRLSCAASGFTISWNTMGWYRQAPRKERELVATISGSGGRTYYADSVKGRFTISRDNAKNTVYFQMNSMKPEDTAVYYCAARYVLGGQGTSRRVRGGYWGQGTQLTVSS | high polyreactivity
26 | QFQLVESGGGLVQAGGSLRLSCAASGFTLRTYAMGWYRQAPGKERELVAAITVSGGTYYADSVKGRFTISRDNAKYTVYLQMNSLKPEDTAVYYCTAKRFGTGFDYWGQGTQVTVSS | low polyreactivity
27 | QFQLVESGGGLVQAGGSLRLSCAASGIIFAQYTMGWYRQAPGKDRELGAAINRNGGSTYYADSVKGRFTISRDNAKNTVYLQMNSLKPEDTAVYYCIADALGFRYDYWGQGTQVTVSS | low polyreactivity
28 | QFQLVESGGGLVQAGGSLRLSCAASGIIFHIYAMGWYRQAPGKERELVAAISTGSSTYYADSVKGRFTISRDNAKNTVYLQMNSLKPEDTSVSYCNAVSRYLWVKGFDYWGQGTQVTVSS | low polyreactivity
29 | QFQLVESGGGLVQAGGSLRLSCAASGITFKTYAMGCYRQAPGKERELFATINRGSRTNYADSVKGRFTISRDNAKNTVYLQMNSLKPEDTAVYYCAAHYTTFIPSPDGDYLGQGTQVTVSS | low polyreactivity
30 | QFQLVESGGGLVQAGGSLRLSCAASGITFRDYAMGWYRQAPGKERELVAAISTRGVRTYYADSVKGRFTISRDNAKNTVYLQMNSLKPEDTAVYYCAARSVTYWWVGYEFYYWGQGTQVTVSS | high polyreactivity
31 | QFQLVESGGGLVQAGGSLRLSCAASGITIRWYAMGWYRQAPGKERELVAGISSRGDSTYYADSVKGRFTISRDNAKNTVYLQMNSLKREDTAVYYCAAPGSSYRGRGYDYWGQGTQVTVSS | high polyreactivity
32 | QFQLVESGGGLVQAGGSLRLSCAASGLIFRHYVMGWYRQAPGKERELVAAITSRGGTTYYADSVKGRFTISRDNEKNTVYLQMNIMKPEDTAVYYCNAVDIDPTRYEYDYWGQVTQVTVSS | high polyreactivity
33 | QFQLVESGGGLVQAGGSLRLSCAASGLIFVGNPMGWYRQAPGKERELVAAISSRGGRTYYADSVKGRFTISRDNAKNTVYLQMNSLKPEDTAVYYCIAANSQWGFEYWGQGTQVTVSS | high polyreactivity
34 | QFQLVESGGGLVQAGGSLRLSCAASGLTFSRYAMGWYIQAPGKERELVAAITCSGSSTYYSHSVKGRFTISRDNAKNNVYLQMNSLKPEDTAVYYCAARYGYSRGTYYRSDYWGQGTQVTVSS | high polyreactivity
35 | QFQLVESGGGLVQAGGSLRLSCAASGNILPAYAMGLYRQAPGKERELVAAISKSGGRTYYADSVKGRFTISLDNAKNTVYLQMNSLKPEDTAVYYALLTVLRAVPYTVRYDYWGQGTQVNVSS | high polyreactivity
36 | QFQLVESGGGLVQAGGSLRLSCAASGRIFDLNAMGWYRQAPGKERELVAAITWSGDSTYYADSVKGRITISRDNAKNTVYLQLNSLKPEDTAVYYCAAASRTSYSWVDYEFDYWGQGTQVTVSS | low polyreactivity
37 | QFQLVESGGGLVQAGGSLRLSCAASGRIFKPNAMGWYRQAPGKERELVAAIRYSTGRTYYADSVKGRFTISRDNAKNTVYLQMNSLKPEDTAVYYCAARRVEYYGSQNGYWGQGTQVTVSS | high polyreactivity
38 | QFQLVESGGGLVQAGGSLRLSCAASGRIFVLNAMGWYRQAPGKERELVAAISGSGSRTYYADSVKGRFTISRDNAKNTVYLQMNSLNPEDTAVYYCNNVSRRSEHTYDYWGQGTQVTVSS | high polyreactivity
39 | QFQLVESGGGLVQAGGSLRLSCAASGRIFVYYMGWYRQAPRKERELVAALSFGGGSTYYADSVKGRFTISRDNAKNTVYLQMNSLKPEDNAVYYCNADGDDLDWNYYLVQYDYWGQGTQVTVSS | low polyreactivity
40 | QFQLVESGGGLVQAGGSLRLSCAASGRIFYRYAMGWYIQAPGKERELVAAITSGTSTNYADSVKGRFTISRDNAKNTVYVQMNSLKPEDTAVYYCAKRYYWKYAEYDYWGQGTLVTVSS | high polyreactivity
41 | QFQLVESGGGLVQAGGSLRLSCAASGRIFYYNAMGWYRQAPGKERELVASITGSGGSTYYADSVKGRFTISRDNAKNTVYLQMNSLKPEDTAVYYCAKREYLYPYYYVAKYDYWGQGTQVTVSS | low polyreactivity
42 | QFQLVESGGGLVQAGGSLRLSCAASGRTFGFNAMGWYRQAPGKERELVAALSGSGGRTYYADSVQGRFTISRDNAKNTVYLQMNSLKPEDTAVYYCAAGARRGGSGDWGQGTQVTVSS | high polyreactivity
43 | QFQLVESGGGLVQAGGSLRLSCAASGRTFPWYAMGWYRQEPGKDRELVAAISWTGGSTYYADSVKGRFTISRDNAKNTVYLQMNSLKPEDTAFYYCAASPWYLKYEYWGQGTQVTVSW | low polyreactivity
